In US20040136959A1 (published 2004):

Tests used:
[1] = target: IL-13 receptor (IL-13R) as naturally present on the human cell lines (human); experiment: cell-based or functional assay
[2] = target: human IL-13 receptor α2 chain (IL-13Rα2) (human) (UniProt Q14627); experiment: cell-based or functional assay
[3] = target: T1, human IL-13 receptor α2 chain (IL-13Rα2) (human, UniProt Q14627 27-380); experiment: 125I-IL-4 radioreceptor binding on SCCHN cells, vector control against IL-13Rα2 transfectants
T1 construct: also called IL-13Rα2 chain; IL-13Rα chain
T1 sequence: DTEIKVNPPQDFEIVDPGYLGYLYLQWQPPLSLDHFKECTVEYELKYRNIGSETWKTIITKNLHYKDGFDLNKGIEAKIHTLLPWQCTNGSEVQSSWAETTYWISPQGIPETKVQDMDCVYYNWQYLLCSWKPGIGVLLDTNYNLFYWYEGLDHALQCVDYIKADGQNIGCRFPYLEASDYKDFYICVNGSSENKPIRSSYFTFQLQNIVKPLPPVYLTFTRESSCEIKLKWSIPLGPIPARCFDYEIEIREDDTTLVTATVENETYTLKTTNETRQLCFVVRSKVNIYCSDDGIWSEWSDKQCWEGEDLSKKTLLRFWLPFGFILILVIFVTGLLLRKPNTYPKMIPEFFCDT

IL-13-PE38 (from UniProt P35225 25-146; P11439 278-389; P11439 406-638)
IC50, inhibition of protein synthesis, A253 cells [1]: 155 ng/mL | IC50, inhibition of protein synthesis, Hep-2 cells [1]: 200 ng/mL | IC50, inhibition of protein synthesis, KB cells [1]: 100 ng/mL | IC50, inhibition of protein synthesis, KCCL871 cells [1]: 185 ng/mL | IC50, inhibition of protein synthesis, KCCT871 cells [1]: 275 ng/mL | IC50, inhibition of protein synthesis, KCCT891 cells [1]: > 1000 ng/mL | IC50, inhibition of protein synthesis, KCCTCM901 cells [1]: 110 ng/mL | IC50, inhibition of protein synthesis, RPMI2650 cells [1]: > 1000 ng/mL | IC50, inhibition of protein synthesis, YCU891 cells [1]: 500 ng/mL | IC50, inhibition of protein synthesis, YCUM862 cells [1]: > 1000 ng/mL | IC50, inhibition of protein synthesis, YCUT891 cells [1]: > 1000 ng/mL | IC50, inhibition of protein synthesis, YCUT892 cells [1]: > 1000 ng/mL | IC50, inhibition of protein synthesis, other 14 SCCHN cell lines [1]: 100 to 1000 ng/mL | IC50, inhibition of protein synthesis, HN12 cells (IL-13Rα2-positive) [2]: 7.5 ng/mL | IC50, inhibition of protein synthesis, IL-13Rα2-positive SCCHN cell lines [2]: < 10 ng/mL | IC50, inhibition of protein synthesis, KCCTC873 cells (IL-13Rα2-positive) [2]: 8 ng/mL | IC50, inhibition of protein synthesis, YCUM911 cells (IL-13Rα2-positive) [2]: 4 ng/mL

B1: Recombinant human IL-4 (ligand, UniProt P05112 25-153, looked up)
chain: HKCDITLQEIIKTLNSLTEQKTLCTELTVTDIFAASKNTTEKETFCRAATVLRQFYSHHEKDTRCLGATAQQFHRHKQLIRFLKRLDRNLWGLAGLNSCPVKEANQSTLENFLERLKTIMREKYSKCSS
notes: also called unlabeled IL-4
binding result [3]: no binding
